How the values were obtained:
[1] = target: T1, mouse insulin receptor (mouse, UniProt P15208 28-1372); test: FACS, serum-starved CHO-K1 cells expressing mouse INSR, no insulin
T1 construct: whole, on cells; also called muINSR; mINSR

[2] = target: T2, human insulin receptor complexed with human insulin (human, UniProt P06213 28-1382; P01308 25-54; P01308 90-110); test: FACS, CHO-K1 human INSR cells, signal with insulin divided by signal without insulin
T2 construct: whole, on cells;mature; also called hINSR-hINS complex; INS/INSR complex
Experimental: (§1) Twenty five microliter aliquots of cells were plated into 96 well plates, mixed with 25 ul of antibody or PPE and incubated on ice for 1 h.
(§2) The cells were then washed once with FACS buffer and the binding of the antibody was detected by the addition of 25 ul of an appropriate fluorochrome-conjugated secondary antibody. […] After a final 15 min incubation on ice the cells were washed and the pellets resuspended in FACS buffer. The cells were analyzed on a FACSCAN™ (Becton-Dickinson, Milipitas, Calif.) and the data analyzed in both FLOWJO™ (Treestar, Ashland, Oreg.) and Microsoft Excel™.

[3] = target: T3, human insulin receptor (human, UniProt P06213 28-1382); test: FACS, serum-starved CHO-K1 cells expressing human INSR, no insulin
T3 construct: whole, on cells; Uncomplexed receptor on serum-starved cells (CHOK1 transfectants or IM-9); also called hINSR; INSR

[4] = target: T4, mouse insulin receptor complexed with human insulin (mouse; human, UniProt P15208 28-1372; P01308 25-54; P01308 90-110); test: FACS, serum-starved CHO-K1 cells expressing mouse INSR, with insulin
T4 construct: whole, on cells;mature; also called muINSR/hINS complex

[5] = target: T4, mouse insulin receptor complexed with …; test: FACS, CHO-K1 mouse INSR cells, signal with insulin divided by signal without insulin
Experimental: as §1, §2

[6] = target: T2, human insulin receptor complexed with …; test: FACS, serum-starved CHO-K1 cells expressing human INSR, with insulin
Experimental: as §1, §2

[7] = target: T4, mouse insulin receptor complexed with …; test: FACS, serum-starved CHO-K1 cells expressing mouse INSR, with insulin [cont'd]
Experimental: as §1, §2

[8] = target: T1, mouse insulin receptor; test: FACS, serum-starved CHO-K1 cells expressing mouse INSR, no insulin [cont'd]
[9] = target: T4, mouse insulin receptor complexed with …; test: FACS, CHO-K1 mouse INSR cells, signal with insulin divided by signal without insulin [cont'd]

Row | Binder | FACS area under log transformed data MFI [1] | FACS area under log transformed data MFI ratio (+insulin/-insulin) [2] | FACS area under log transformed data MFI [3] | FACS area under log transformed data MFI [4] | FACS area under log transformed data MFI ratio (+insulin/-insulin) [5] | FACS area under log transformed data MFI [6] | FACS area under log transformed data MFI [7] | FACS area under log transformed data MFI [8] | FACS area under log transformed data MFI ratio (+insulin/-insulin) [9]
1 | Ab051 (antibody, IgG2, V domains shown, also called XPA.015.194) VH: QVQLVQSGAEVKKPGSSVKVSCKASGGTFSSYAISWVRQAPGQGLEWMGGIIPIFGTANYAQKFQGRVTITADESTSTAYMELSSLRSEDTAVYYCAGKLYSRDYWYFDLWGRGTLVTVSS VL: SSELTQDPAVSVALGQTVRITCQGNSLRSFYATWYQQKPGQAPVLVIYGKNIRPSGIPDRFSGSNSGDTASLTITGTQAEDEADYYCNSRDNNRNHLLFAGGTKVTVL | 663 | 0.68 | 554 | 470 | 0.71 | 378 | – | – | –
2 | Ab068 (antibody, IgG2, V domains shown, also called XPA.015.217) VH: EVQLVQSGAEVKQPGSSVKVSCKASGGSFNSYTFSWVRQAPGQGLEWMGWISAYNGGTNYFANYALKFQGRVTMTTDTSTGTAYMELRSLRSDDTAVYYCARVRDSWSHEDYSYYYYMDVWGKGTTVTVSS VL: DVVMTQTPLSLSVTPGQPASISCKASQSLLYTNGDTYVSWYVQKPGQAPQLLFSDVSSRFFGVPDRFSASGSGTDFTLKISRVEAEDVGVYYCVQAMYLPLVFGQGTKVEIK | 803 | 0.72 | 1420 | 445 | 0.55 | 1030 | – | – | –
3 | Ab081 (antibody, IgG2, V domains shown, Negative modulator; also called XPA.015.247) VH: EVQLVETGGGVVQPGRSLRLSCAASGFTFSSYAMHWVRQAPGKGLEWVAVISYDGSNKYYADSVKGRFTISRDNSKNTLYLQMNSLRAEDTAVYYCARHEWGFGMDVWGQGTTVTVSS VL: DVVMTQSPLSLSVTLGQPASISCRSSLSLVYGDENTYLNWFQQRPGQSPRRLLYKVSDRDSGVPDRFSGSGSGTDFTLKISRVEADDVGVYYCMQGTHWPYTFGQGTKLEIK | – | – | – | – | – | – | 125 | 189 | 0.66
4 | Ab064 (antibody, IgG2, V domains shown, also called XPA.015.213) VH: QVQLVQSGAEVKKPGESLKISCKGSGFSFPSYWIGWVRQMPGKGLELVGIIYPGDSDIRYSPSFQGQVTISADTSISTVYLQWSSLQTTDTATYYCARGGFNWFDPWGQGTLVTVSS VL: QAVVTQEPSLTVSPGGTVTLTCASSTGAVTSGYYPNWFQQKPGQAPRALIYSTSNKHSWTPARFSGSLLGGKAALTLSGVQPEDEAEYYCLLYYGGAQPWVFGGGTQLTVL | 1020 | 0.74 | 1710 | 813 | 0.8 | 1270 | – | – | –
5 | Ab052 (antibody, IgG2, V domains shown, also called XPA.015.195) VH: EVQLVQSGAEVKKPGESLKISCKGSGYRFTSYWIGWVRQMPGRGLEWMGIIYPGDSDTRYSPSFQGQVTISVDKSISTAYLQWSSLKASDTAMYYCATHHASGRGLDPWGQGTLVTVSS VL: QAMLTQPASLSASPGASASLTCTLRSGINVVAYNIYWYRQKSGSPPQSVLRYKSDSDSERDSGVPSRFSGSKDVSANAGILLISGLQSEDEADYYCLIWHNSAWVFGGGTQLTVL | 892 | – | 445 | 397 | 0.45 | – | – | – | –
6 | Ab063 (antibody, IgG2, V domains shown, also called XPA.015.212) VH: QVQLQQSGPGLVKPSQTLSLTCAISGDSVSSNSAAWNWIRQSPSRGLEWLGRTYYRSKWYTDYALSVKSRITINPDTSKNQFSLHLNSVTPEDTAVYYCAREGWLGYFDFWGQGTLVTVSS VL: SSELTQPPSVSVAPGKTATITCGGDNIASKSVHWYQQKPGQAPVLVLYDDSVRPSDIPERFSGSNSANTATLTLTRVEAGDEGEYYCQVWDVRSDHPFFGPGTKVTVL | 1020 | 0.71 | 943 | 733 | 0.72 | 674 | – | – | –
7 | Ab056 (antibody, IgG2, V domains shown, also called XPA.015.199) VH: QVQLVQSGSEVKKPGASVKVSCKASGYTFTNSYMHWVRQAPGQGLEWMGIINPSAGTSYAQKFQGRVTMTRDTSTSTVYMELSSLKSEDTAVYYCARDVGWLPGDYWGQGTLVTVSS VL: QSALTQPASVSESPGQSITISCTGTGSDIGTYNLVSWYQHHPGKAPKLMIYEVTKRPSGVSNRFSGSKSGNTASLTISGLQAEDEADYYCSSYTSSSTLYVFGTGTKLTVL | – | 0.84 | 1110 | – | – | 927 | – | – | –
8 | Ab069 (antibody, IgG2, V domains shown, also called XPA.015.222) VH: EVQLVQSGAEVKKPGESLKISCKGSGYSFTSYWIGWVRQMPGKGLEWMGIIYPGDSDTRYSPSFQGQVTISADKSISIAYLQWSSLKASDTAMYYCARLGRGYYGMDVWGQGTTVTVSS VL: SSELTQDPAVSVALGQTVRITCQGDSLRSYYASWYQQKPGQAPVLVIYGKNNRPSGIPDRFSGSRSGNTASLTITGAQAEDEADYYCNSRDSSGNHVVFGGGTKVTVL | 642 | – | 357 | 383 | 0.6 | – | – | – | –
9 | Ab067 (antibody, V domains shown, also called XPA.015.216) VH: EVQLVQSGAEVKKPGSSVKVSCKASGGTFSSYAISWVRQAPGQGLEWMGGIIPIFGTANYAQKFQGRVTITADESTSTAYMELSSLRSEDTAVYYCARASGDYDFWSGYYGAEYFQHWGQGTLVTVSS VL: not shown | 1280 | 0.69 | 1540 | 786 | 0.61 | 1060 | – | – | –
10 | Ab054 (antibody, IgG2, V domains shown, also called XPA.015.197) VH: not shown VL: QSALTQPRSVSESPGKTVTISCTGSGGSIGSNYVQWYQQRPGSAPTTVIFEDNRRPSGVPDRFSGSIHSSSNSASLTISGLKTEDEADYYCQSYVGTIVVFGGGTKVTVL | 1030 | 0.32 | 1130 | 519 | 0.51 | 356 | – | – | –
11 | Ab050 (antibody, IgG2, V domains shown, also called XPA.015.193) VH: QVQLVQSGAELKKPGATVKISCKVSGYTFGDYHMHWVKQAPGKGLEWMGLVDPENGETEYGEKFQDRITMAADTSTDTAYMELSSLRSEDTAVYYCARSPSSSGYFRVDGFDIWGQGTMVTVSS VL: NFMLTQPHSVSESPGKTVSISCTGSSGSIGSNYVQWYQQRPGSAPTTVIYEDNQRPSGVPDRFSGSIDSSSNSASLTISGLKTEDEADYYCQSYYNSNVVFGGGTKLTVL | 424 | – | 252 | 170 | 0.4 | – | – | – | –
12 | Ab066 (antibody, IgG2, V domains shown, also called XPA.015.215) VH: EVQLVQSGAEVKKPGSSVKVSCKASGGTFSSYAISWVRQAPGQGLEWMGGIIPIFGTANYAQKFQGRVTITADKSTSTAYMELSRLRSDDTAVYYCARDASYGGNSEGFDYWGQGTLVTVSS VL: SSELTQDPAVSVAVGQSVRITCQGDSLKNFYATWYQQRPGQAPLLVIFGKNNRPSGIPDRFSGSSSGNTASLTVTGAQADDEADYYCNSPDSSNKLVVFGGGTKLTVL | 1520 | 0.74 | 1560 | 1140 | 0.76 | 1160 | – | – | –
13 | Ab060 (antibody, IgG2, V domains shown, also called XPA.015.207) VH: QMQLVQSGAEVKKPGSSVKVSCKASGGTFSSYAISWVRQAPGQGLEWMGIINPSGGSTSYAQKFQGRVTMTRDRSTSTVYMELSSLTSEDTAVYYCVRDNHGWSFDYWGQGTLVTVSS VL: QAVLTQPASLSASPGESARLTCTLPSDINVRYYNIYWYQQKPGSPPRYLLYYYSDSNKDQGSGVPSRFSGSKDVSTNTGILVISGLQSEDEAEYYCMTWSSNGSGVFGGGTQLTVL | 210 | 0.67 | 460 | 388 | 1.85 | 308 | – | – | –
